# Measured values published in the domain aggregation screens of Martell et al. (2025).
# Assay: soluble fraction after stress (log2 fold change); higher = more stays soluble; pooled small domains, quantitative proteomics
# Conditions: stress: pH 4
# Summary of the method: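 Values are on a log2 scale, where higher means more of the domain stayed soluble after pH 4 stress. They are fold changes in the soluble amount of each domain from pooled custom libraries, measured by high-throughput quantitative proteomics. The fold change is taken to reflect aggregation propensity.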
row,Sequence,soluble fraction (log2)
1,HMEEKNNIIVSYIEDKISELEKASMYVPNENKEKLIMAFKNRNEDIDVIKTRIDTIFNNSVAAYKENME,-1.32
2,HMFPELSPEEQLIVEVLSKTNDLQVNLISVKTNIDISRLTSLLFTLEMKGVIKTFAGGMYHLL,-0.712
3,HMNEKLNEYLNQVKAYLNTSDNKEDIIKELEAVVLEKAEKKYGQITDESISKILSEFGSPAEVAKEYS,-0.103
4,HMEEQGLPLVIISDGKVLAQNLTLRSLDRAWLQDQLTQHGHSKPEQVFLLTVDERGAVYYVPKE,-1.86
5,HMAMDITLPLAEVRRQSLEQIERQYLNELMSKHLGRINRAAEAAGITTRQLHKLLTKYSIRKEDFK,0.0354
6,HMGIVYGVIKENWDQDHPGMVKVEILQGESGKNVSDWIPVMSPYAGKEFGAYALPEIGTQAVVAFE,-0.0368
7,HMSKNVTMPNLVGYSMRQAKAELLSRGLHLGKLIYVNDIATNNVISQLYRNAEIEPGVKIESESYVDLVVG,-0.631
8,HMDFYIVLGVDRAASVSDVKRAYRRLARKYHPDINPGDREAEAFFLRVTEAYETLIDPDRRQDYDVNG,-1.31
9,HMDVTSLDMLRFLMDQHGLRQQDLSELGSQGVVSEILAGKRELNLRHIGALARRFKVPPEVFLPA,-0.619
10,HMKPSVEIKVNGGTGAGVVKKGGSITVTANEPAEGKVFTGWQDESGKIVSTQKEYTFTVAEGTTLTAVYED,-0.417
11,HMQIVPVDYSTFMQSIDDKTVDHVEIQSNQILYTVKDDHKKYKTGIMNDPTLAQRLMESGATFTQD,0.185
12,HMTEGDRLARRILRLVRNKPNGYPEVELMKATVLDWNHFQRSISSLEMAGILERRDPGDGTPPVWVEKR,-1.11
13,HMENDYTQAQFVQDLDSGVVREVIIIPNREAPTGYARVVFGDVVRELYATDIREVEALAREHGYEPTVED,-0.499
14,HMLKLEPYTINEINSLQELYDLGNVRALETLISIYKDKNQVYDTRFYVLDILSKYDNPLIQEALEESITN,-1.89
15,HMQFAEIPNFSEMALQILRLQADGLSITKIAEALHMNPRTVKYHAQENYRKLQASNKSEALLAARNLNL,-0.418
16,HMAHILDLMELKQILRLHMDGLSNRRISDTLGIHRNTINSYVSQFKASKHGIEELLKLSDYELAQLFP,-1.39
17,HMRPTVNETQIREVFRSILGREVDPEGLRHYLGQAAKGWSIDQIRADVNNSQEAHQRRAELARQAEELK,-0.217
18,HMEISTENESFSNGLLEHPHYTRPPVWEDLKIPAVLMSGHHGKVAEWRKQQSEALTQERRPDLWEAFG,-0.0776
19,HMGKDTLKLKKNAIPYDENGKKLTNLGYSYIKKTTVLNYYGTKIINGSTYYFLGDGVYIKAANVGTTSH,0.232
20,HMINFKVKNVQDVGSRLDKFLVTNIPEFSRSKIQKHIKNGKVMVNGLLKKTGYKLEINDEINILNN,0.198
21,HMKYPVYLQLADLIERKINKNEYPLGSKIPSERELIDAFGISRMTVRKAIEVLIEKGLLTRQHGKGTYVSQ,0.182
22,HMTMPDFGYMRVSYAEARRQLQAIGISVSTIEKVEDPSHTSATGDMVISQYPAAGSKIEGTVTLYVSVAS,0.332
23,HMPGTAAQARQLKAWLKENGEKPGAALPALQKAQEIYGYVPREVQQLIADALHKPLTEIYGVSTFYSQFNL,-0.326
24,HMTFEAKKGYINADMSVNVRETASTSATVIITLNPNTEVKVVGEENDFYKIEYKEYKGYVAKRLISDSQVQ,-0.142
25,HMSQNISSTKLIPENIKIGMSVFVIPLQQKGIVQSLPNRSKEVLVQIGNAKINVKINNLKLIED,-0.238

row,Sequence,soluble fraction (log2)
1,HMIMGTIEKRGPFSFRIGVQVRLPDGSWEWIRDTIHVSPDLSARAARKQAEMALARLEADVYEGKRKPD,-0.0141
2,HMQKFLEATGENRDAAVENALEQLGLERDDVSVEVLEIGKKGFLGIGATPARVRVTYEAPDI,-1.51
3,HMKQISQNIHRLRKEKGMSQEQLAQALHVTRQTVSAWERGIAQPSLDVLGQIAQLLGVEPERLLYGE,-0.16
4,HMSSPPNPQLAKRYISYSVDDIARLFGIHRHTVREWIKRGLPVIDQQRPLLVQGADLAEFLRKRRA,0.162
5,HMPAKDAEFTAFVRSATPTLTRTAYLLTGDRETASDLVQEAFVRTYLAWRRVRPEEATAYTRRVLVN,0.22
6,HMDEARLAVASNLIRLRTDAGMTQAELGEKLNYSDKTISKWERAEAIPDAFVLKQIGELFHVSVDFLLRTH,0.1
7,HMASRKTERINRLIDVLQHATSRVPASVLSKILGIGERSVRNYVSEVNEQGQFRIDSSSGGYRLVA,-0.0154
8,HMDGYLQLASKKNELITQLKTPPKPKRLFKDFEDRVYLITEYKVFVVSIFQNEFRLRPVNKDDFYRYTT,-0.134
9,HMPREQQENVYLLEKAKRLYEEYLGDQRQTIGHALAQFERVLESQDPAAIRRAQKEFGEFLERYDG,-0.139
10,HMPSEDELAERLRGAIRQGDILNEGRMPPERALAEHFGVSRARLRLALGLLQEDGTIYRRHGQGTFAT,-0.0169
11,HMASEKSEQLYQQMKLDIAGMPPDTRLPSIRALMRSYSVSQLLIDRTLGRLREEGALRKRFDGLYTYL,-0.0945
12,HMEREQNILQGREVVERELRRLGLAEAYTVSDIAKALKFDDEEQFLAKVGFGDIQSRQISGAIALMEKN,-0.553
13,HMVSEDELLARIALLPYPQAKILLEERLSHDPANAKVRQLYLELAKKSGDHTEVTRHNSLLY,0.0149
14,HMNSEPKTKLQEIAQERGLAAPVYETTHTGPDHDRIFSASVTVGDVVAAGEARSRKGAESEAAIAAIKALG,0.155
15,HMKNKIYGTIVSSTSGEETVYKVFQVDSSKDITYLFRPDMIRLAHENNQALEFNEETGRGKRIEMSDLPK,-0.0332
16,HMPSARELLATNIVRLRKEKGWSQEDLALEAGLHRTFVAHVERHARNISLDNIERLANALQVNVHILLL,-1.26
17,HMWNGIVDAGKARQHLMNLSQLGVGRRAVAAASDVAETVLMDIRSGTKTRIRARTERQILAVTPEMA,0.22
18,HMEVSTDADFEAVGIRAELIPILQKLGFTTVAQLKEVKATKLFNDIPGMRKKLKLDAVQNPTLQEIEGWLK,0.0606
19,HMEGVSNLIVSVTRVKVTVDLSQAKVYLSIFPSEQAAFYLNALQQNRFQLKHDLSQLLKNQLRRIPTLQF,-0.0019
20,HMQTMNKTNISNFEKYLNSGDVSEVIVVRNKSSVRVTLTPEALRSSEHQAVVGKNILGQENIKGPHYQFEV,0.138
21,HMLRLLEIIAGNEVSKEINSQVIKYYKALKNKKIEEINNLTPSYNKLIISFDLKKKNFREMKKIIEDISIN,-0.436
22,HMEALASESVKDKIRKIIDSEDPSRPMSDQRIKEMLKAANIDIARRTVTKYREAMNILSSTKRRQV,-0.168
23,HMKIPGIGDVYAILARVYSGPQFTWIEAGFPEDDTKAYSYLHTAIRKGSAIAILQAMRTSGALTPTIEKE,-0.457
24,HMGTSQSAVKAILAQLISDENKQKPYSDEALSRLLQQQGIDIARRTVAKYREALNIPPAHQRK,0.365
25,HMHPKDVPTRRELEVLQAVSEGLSTAEIGLRLDITENTVETFRRRLIQKFDAKNAIDLVVKAMAQGWIKV,-0.255

row,Sequence,soluble fraction (log2)
1,HMYQNRLFYTLKTGETVADLSKSQDINLSTIWSLNKHLYSSESEMMKAAPGQQIILPLKKLP,0.135
2,HMVTVPNYSDPRQYVEWGNANGITINRAVGDTIASMSGRVQDVRDSNGNSVIGKKVKKGSTVTVYIYFLK,-0.0785
3,HMSNTIFGINGPVVTVASKDFSMQEMVYVGNERLVGEVISIDDDLTTIQVYEVTTGLKPGEPVVGTGSAM,-1.64
4,HMLFQQPATMIGKIGVAMSDLRPSGKIKIDDEWYDGQSEGDYILKGQEIIVVQVMNAYLIVRL,-0.44
5,HMDEKPPHEALSNREFQVLQLLAQGRSVGQIAQQLTLSANTISTYRARIFDKLGLHNPADLFSYAARHRLT,0.111
6,HMNKTLTEQIYDELKSAIIELELKPGEFVTEEYLAEQLGVSRTPLKSAISKLIFEGLMAYEVGKGTYIS,-1.32
7,HMHNNTITLNKKTYVYTASGKKMSKYLGYTYINKGTTLNYYGTKNIKGKTFYYIGDHAYVNAANVGKVTN,≥ 0.43
8,HMTDVHFIDVPVSEGHPWIGLTVKDLNLPPGTLLVFLNHPGEKSTVPNGDTVLREGDVLVLGATAYAG,-1.02
9,HMKNVSVKMILSPESLGEIQVDLVFSKGKDLEIMLRPETAEVAKLIQSNSASLREQLSLEHKGPLSLNVS,-0.405
10,HMRRDEDLAHGRELLEKELRKQGLEVSENLKQDKLLEGAKRLGFLEAEDLVVAVGSGKVSAGMAVGRIIG,-0.411
11,HMTNLTPKQQQIYQFIRASTQANGYPPTLREIGQQVGVRSPSTVKYHLDNLRTLGLLHWDGGKTRSITLP,0.0274
12,HMEEDDGVDFHERLTELNDEQVYYLINTEPAKVIALALDQLGQKRKINIMNRFNPDMKHSIIMELGKL,-0.666
13,HMTEAIDVPNLVGQNYSDVKSNSSYKFNWDIINVYDSGKPEGEIIKQEPEAGSKKVKENAVITLTVN,-0.0209
14,HMKVQLGMNTREVRGIMGKPFSEDTFVEGEKRVDVLHYKEAVRVKTQGFILTTSLRFENDSLTAI,-1.02
15,HMLQNLGFKPDLEIRHFPGIVLPDIHRSKKTISLLYTLLAGDIKKLPENEINYKDSKIISSYLWTLLRYH,0.22
16,HMQEQSSYVGQFGTAATTLRPSGTVELEDGTRIDVVTVGEFIEKGEPVQVVRKDGTWLVVEKRRSK,0.122
17,HMNKRYKVQVTTDNLKIRKGAGTSYPVVGHITDKGTYTIVETSGKWGKLLSGAGWIYLSYTKK,0.22
18,HMEHDYGLSGREREVLELMVQGLVKKEIADRLALSYHTVDNHLRSIYAKLQVHTRGGAVAKALSEHLVPP,-0.483
19,HMSWDNELLERAHKIIELYPQKRSALGPLLYLAQEKDGFISDDSIVEISNLVDITEVQVKSVSSFYSMY,-0.0573
20,HMNLLGERIREIRMEMGLTAKELAQRASVTPGYISQIEHDQIKPSMNVMMRIAEVLNVPMAALLM,≥ 0.43
21,HMNVGKRLKSLREKYKFSLEEVAKKIKSSAGAISRYENNERKINSESLIRLSNLYNVSPEYILYG,0.391
22,HMQQLTDRELEVLRLLAAGLSNNKIGEKLYISATTAKFHVSNIMRKLEVSRRAEAVYAASKRGL,-0.587
23,HMRRIADVVPEQLTREEAEELLETLAEQGEIHEEQALLARYILEQSLQGVAPEVEPLIRAKLLAGILMVY,-1.67
24,HMSGFPTDAQIVREIRNILPTLENPTPRMVRKALENTFEVDMGESKTKKYINNIIITEYEKWSSVQSIRE,-0.804
25,HMSEEAMVSNFRQQEILELARKDGKVTVDGLAELYDVTVQTIRRDLSDLADSGRLKRVHGGAVVPS,-0.465
